Data from US20230220070A1 (ARIALYS THERAPEUTICS, published 2023).

Experiments:
[1] = target: T1, human NMDAR (NR1/NR2B) on NMDAR expressing HEK cells (human, UniProt Q05586 19-938; Q13224 27-1484); test: flow cytometry on NMDAR-expressing HEK cells, PE-labelled anti-human IgG, GeoMFI
T1 construct: whole, on cells; Commercial HEK cell line (Charles River Laboratories, CTN6121); The antibodies are directed against the NR1 subunit; also called cell surface NMDAR; NMDAR expressed in HEK cells
Protocol: The binding activity of the produced humanized one-armed anti-human NR1 monoclonal antibodies was evaluated in a flow cytometry trial using the NMDAR expressing HEK cell.
The NMDAR expressing HEK cells were induced overnight and collected. […] After staining, the cells were sedimented at 1,200 rpm for 5 minutes and the supernatant was removed. After adding 2% Dialyzed FBS to the cells, the cells were centrifuged and sedimented. After the supernatant was removed, the PE labeled anti-human IgG antibody (Jackson ImmunoResearch Laboratories, 109-116-098) was diluted 100 times with 2% Dialyzed FBS and added to cells for 30 minutes at 4° C. After staining, the cells were centrifuged and sedimented as described above. After removing the supernatant, the cells were suspended in 2% Dialyzed FBS and the steps after secondary staining were repeated. The flow cytometry (FACS Verse) was measured as described in Example 3. each antibody binds with the cell surface NMDAR from GeoMFI showing the PE Fluorescence intensity value was analyzed using FlowJo (Becton Dickinson, Ver. 10.0.8).

[2] = target: T2, human NR1-His protein (extracellular domain of human NR1 with linker, HisTag and AviTag) (human, UniProt Q05586 19-392); test: competition ELISA on plate-coated human NR1-His protein; inhibition of the binding of biotin-labelled P003-102, streptavidin-HRP chemiluminescence
T2 construct: Expressed in Expi293F cells and purified from the supernatant; also called human NRA-His protein; human NR-His protein
Protocol: Specifically, 15 μL of the human NR1-His protein solution (1 μg/mL in Tris Buffered Saline (herein referred to as “TBS”)) was added to the 384 well plate (Thermo Fisher Scientific, 460372) and incubated overnight at 4° C. Then, the human NRA-His protein solution was removed and washed with 0.5% Tween-20 comprising TBS, NIPPON GENE, 310-07375 (referred to as “TBS-T”). After the wash, 50 uL of Blocking One (Nacalai Tesque, Inc., 03953-95) was added and incubated at room temperature for 1 hour or more.
After the wash, 15 μL is added to the HRP-labelled streptavidin (Funakoshi Co., Ltd., 21130) diluted 8,000 times using diluent, and incubated at room temperature for 30 minutes.

[3] = target: T2, human NR1-His protein (extracellular …); test: SPR (Biacore T200), antibody captured by anti-human IgG on a CM5 chip, human NR1-His protein as analyte, 1:1 binding model

B1: ABN-2, humanized one-armed anti-human NR1 antibody (antibody, human IgG1, kappa, L234A L235A)
heavy: not shown
light: DLQMTQSPSSLSASVGDRVTITCKASQDVNTAVAWYQQKPGKAPKLLIYWASTRHTGVPSRFSGSGSGTDYTLTISSLQPEDFATYYCQQHYSTPFTFGQGTKVEIKRTVAAPSVFIFPPSDEQLKSGTASVVCLLNNFYPREAKVQWKVDNALQSGNSQESVTEQDSKDSTYSLSSTLTLSKADYEKHKVYACEVTHQGLSSPVTKSFNRGEC
chain: not shown
notes: also called ABN_178-m3
EC50 (read off the curve) [1]: ~0.05 µg/mL
IC50 (read off the curve) [2]: ~0.3 µg/mL

B2: ABN-4, humanized one-armed anti-human NR1 antibody (antibody, human IgG1, kappa, L234A L235A)
heavy: not shown
light: DIQMTQSPSSLSASVGDRVTITCRPSENIYSNLAWYQQKPGKAPKLLVYAATNLADGVPSRFSGSGSGTDYTLTISSLQPEDIATYYCQHFWDSPPTFGQGTKLEIKRTVAAPSVFIFPPSDEQLKSGTASVVCLLNNFYPREAKVQWKVDNALQSGNSQESVTEQDSKDSTYSLSSTLTLSKADYEKHKVYACEVTHQGLSSPVTKSFNRGEC
chain: not shown
Kd [3]: 878 pM
IC50 (read off the curve) [2]: ~2 µg/mL

B3: ABN-5, one-armed anti-human NR1 antibody derived from P003-102 (antibody, human IgG1, lambda, L234A L235A)
heavy: not shown
light: NFMLTQPHSVSESPGKTVTISCTRSSGSIASNYVQWYQQRPGSAPTTVIYEDNQRPSGVPDRFSGSIDSSSNSASLTISGLKTEDEADYYCQSYDSSTVVFGGGTKLTVLGQPKANPTVTLFPPSSEELQANKATLVCLISDFYPGAVTVAWKADGSPVKAGVETTKPSKQSNNKYAASSYLSLTPEQWKSHRSYSCQVTHEGSTVEKTVAPTECS
chain: not shown
notes: Monovalent one-armed antibody made of one heavy chain (LALA; T366S, L368A, Y407V), one light chain and one Fc polypeptide
EC50 (read off the curve) [1]: ~0.8 µg/mL
